Measured values taken from article PMC5145805, “Structural Basis for Selective Interaction between the ESCRT Regulator HD-PTP and UBAP1” (Structure(London, England:1993), 2016).
Entries after “also recorded” stand apart in the source; their conditions may differ.

B1: UBAP1-GFP: UBAP1 GFP fusion, wild-type (protein)
chain: MASKKLGADFHGTFSYLDDVPFKTGDKFKTPAKVGLPIGFSLPDCLQVVREVQYDFSLEKKTIEWAEEIKKIEEAEREAECKIAEAEAKVNSKSGPEGDSKMSFSKTHSTATMPPPINPILASLQHNSILTPTRVSSSATKQKVLSPPHIKADFNLADFECEEDPFDNLELKTIDEKEELRNILVGTTGPIMAQLLDNNLPRGGSGSVLQDEEVLASLERATLDFKPLHKPNGFITLPQLGNCEKMSLSSKVSLPPIPAVSNIKSLSFPKLDSDDSNQKTAKLASTFHSTSCLRNGTFQNSLKPSTQSSASELNGHHTLGLSALNLDSGTEMPALTSSQMPSLSVLSVCTEESSPPNTGPTVTPPNFSVSQVPNMPSCPQAYSELQMLSPSERQCVETVVNMGYSYECVLRAMKKKGENIEQILDYLFAHGQLCEKGFDPLLVEEALEMHQCSEEKMMEFLQLMSKFKEMGFELKDIKEVLLLHNNDQDNALEDLMARAGAS
modifications: left off: GFP, end not stated, kept
notes: UBAP1 GFP fusion, wild-type
B2: L271A: L271A mutation in UBAP1, Y2H fragment (protein, UniProt Q9NZ09 1-502, looked up, variant L271A)
Ubiquitin-associated protein 1: MASKKLGADFHGTFSYLDDVPFKTGDKFKTPAKVGLPIGFSLPDCLQVVREVQYDFSLEKKTIEWAEEIKKIEEAEREAECKIAEAEAKVNSKSGPEGDSKMSFSKTHSTATMPPPINPILASLQHNSILTPTRVSSSATKQKVLSPPHIKADFNLADFECEEDPFDNLELKTIDEKEELRNILVGTTGPIMAQLLDNNLPRGGSGSVLQDEEVLASLERATLDFKPLHKPNGFITLPQLGNCEKMSLSSKVSLPPIPAVSNIKSLSFPKADSDDSNQKTAKLASTFHSTSCLRNGTFQNSLKPSTQSSASELNGHHTLGLSALNLDSGTEMPALTSSQMPSLSVLSVCTEESSPPNTGPTVTPPNFSVSQVPNMPSCPQAYSELQMLSPSERQCVETVVNMGYSYECVLRAMKKKGENIEQILDYLFAHGQLCEKGFDPLLVEEALEMHQCSEEKMMEFLQLMSKFKEMGFELKDIKEVLLLHNNDQDNALEDLMARAGAS
B3: UBAP1-GFP F268S: UBAP1-GFP with F268S mutation (protein)
chain: MASKKLGADFHGTFSYLDDVPFKTGDKFKTPAKVGLPIGFSLPDCLQVVREVQYDFSLEKKTIEWAEEIKKIEEAEREAECKIAEAEAKVNSKSGPEGDSKMSFSKTHSTATMPPPINPILASLQHNSILTPTRVSSSATKQKVLSPPHIKADFNLADFECEEDPFDNLELKTIDEKEELRNILVGTTGPIMAQLLDNNLPRGGSGSVLQDEEVLASLERATLDFKPLHKPNGFITLPQLGNCEKMSLSSKVSLPPIPAVSNIKSLSSPKLDSDDSNQKTAKLASTFHSTSCLRNGTFQNSLKPSTQSSASELNGHHTLGLSALNLDSGTEMPALTSSQMPSLSVLSVCTEESSPPNTGPTVTPPNFSVSQVPNMPSCPQAYSELQMLSPSERQCVETVVNMGYSYECVLRAMKKKGENIEQILDYLFAHGQLCEKGFDPLLVEEALEMHQCSEEKMMEFLQLMSKFKEMGFELKDIKEVLLLHNNDQDNALEDLMARAGAS
modifications: left off: GFP, end not stated, kept
notes: UBAP1-GFP with F268S mutation
B4: F268S: F268S mutation in the FPXL motif of UBAP1, Y2H fragment (protein, UniProt Q9NZ09 1-502, looked up, variant F268S)
Ubiquitin-associated protein 1: MASKKLGADFHGTFSYLDDVPFKTGDKFKTPAKVGLPIGFSLPDCLQVVREVQYDFSLEKKTIEWAEEIKKIEEAEREAECKIAEAEAKVNSKSGPEGDSKMSFSKTHSTATMPPPINPILASLQHNSILTPTRVSSSATKQKVLSPPHIKADFNLADFECEEDPFDNLELKTIDEKEELRNILVGTTGPIMAQLLDNNLPRGGSGSVLQDEEVLASLERATLDFKPLHKPNGFITLPQLGNCEKMSLSSKVSLPPIPAVSNIKSLSSPKLDSDDSNQKTAKLASTFHSTSCLRNGTFQNSLKPSTQSSASELNGHHTLGLSALNLDSGTEMPALTSSQMPSLSVLSVCTEESSPPNTGPTVTPPNFSVSQVPNMPSCPQAYSELQMLSPSERQCVETVVNMGYSYECVLRAMKKKGENIEQILDYLFAHGQLCEKGFDPLLVEEALEMHQCSEEKMMEFLQLMSKFKEMGFELKDIKEVLLLHNNDQDNALEDLMARAGAS
B5: P269A: P269A mutation in UBAP1, Y2H fragment (protein, UniProt Q9NZ09 1-502, looked up, variant P269A)
Ubiquitin-associated protein 1: MASKKLGADFHGTFSYLDDVPFKTGDKFKTPAKVGLPIGFSLPDCLQVVREVQYDFSLEKKTIEWAEEIKKIEEAEREAECKIAEAEAKVNSKSGPEGDSKMSFSKTHSTATMPPPINPILASLQHNSILTPTRVSSSATKQKVLSPPHIKADFNLADFECEEDPFDNLELKTIDEKEELRNILVGTTGPIMAQLLDNNLPRGGSGSVLQDEEVLASLERATLDFKPLHKPNGFITLPQLGNCEKMSLSSKVSLPPIPAVSNIKSLSFAKLDSDDSNQKTAKLASTFHSTSCLRNGTFQNSLKPSTQSSASELNGHHTLGLSALNLDSGTEMPALTSSQMPSLSVLSVCTEESSPPNTGPTVTPPNFSVSQVPNMPSCPQAYSELQMLSPSERQCVETVVNMGYSYECVLRAMKKKGENIEQILDYLFAHGQLCEKGFDPLLVEEALEMHQCSEEKMMEFLQLMSKFKEMGFELKDIKEVLLLHNNDQDNALEDLMARAGAS

Columns and labels:
[1] = system: FKBP-HD-PTPBro1-CC in HeLa cells; test: Mitochondrial targeting (FKBP-HD-PTPBro1-CC / Mito-FRB relocalization, immunofluorescence); type: cell-based; conditions: rapamycin 1 μM, 3 hr; for relocation to mitochondria with HD-PTPBro1-CC: HeLa
Method: Mitochondrial targeting experiments were performed as previously described ([Sato et al., 2015]). HeLa cells were transiently transfected with HD-PTPBro1-CC containing an N-terminal FKBP sequence and a C-terminal myc tag (cloned into pcDNA5), Mito-FRB (a gift from Martin Lowe, Manchester, UK), and either GFP, WT UBAP1-GFP, or F268S UBAP1-GFP (in pEGFP). Mitochondrial relocation of FKBP-HD-PTPBro1-CC-myc was induced by addition of 1 μM rapamycin (Sigma) for 3 hr. Cells were then prepared for immunofluorescence microscopy as above. Mitochondrial relocation of GFP-tagged constructs was scored in three independent experiments (100 cells counted per experiment).

HD-PTPBro1-CC = target: T1, HD-PTPBro1-CC (Homo sapiens, UniProt Q9H3S7); test: Yeast two-hybrid interaction with HD-PTPBro1-CC; type: binding; conditions: Matchmaker Gold, each triplicate experiment repeated at least three times
T1 construct: HD-PTPBro1-CC (1–714) was cloned into a pET28a vector with restriction sites Nde1 and Xho1; made in house; host or cells: Escherichia coli BL21(DE3)
T1 sequence (Q9H3S7 1-714): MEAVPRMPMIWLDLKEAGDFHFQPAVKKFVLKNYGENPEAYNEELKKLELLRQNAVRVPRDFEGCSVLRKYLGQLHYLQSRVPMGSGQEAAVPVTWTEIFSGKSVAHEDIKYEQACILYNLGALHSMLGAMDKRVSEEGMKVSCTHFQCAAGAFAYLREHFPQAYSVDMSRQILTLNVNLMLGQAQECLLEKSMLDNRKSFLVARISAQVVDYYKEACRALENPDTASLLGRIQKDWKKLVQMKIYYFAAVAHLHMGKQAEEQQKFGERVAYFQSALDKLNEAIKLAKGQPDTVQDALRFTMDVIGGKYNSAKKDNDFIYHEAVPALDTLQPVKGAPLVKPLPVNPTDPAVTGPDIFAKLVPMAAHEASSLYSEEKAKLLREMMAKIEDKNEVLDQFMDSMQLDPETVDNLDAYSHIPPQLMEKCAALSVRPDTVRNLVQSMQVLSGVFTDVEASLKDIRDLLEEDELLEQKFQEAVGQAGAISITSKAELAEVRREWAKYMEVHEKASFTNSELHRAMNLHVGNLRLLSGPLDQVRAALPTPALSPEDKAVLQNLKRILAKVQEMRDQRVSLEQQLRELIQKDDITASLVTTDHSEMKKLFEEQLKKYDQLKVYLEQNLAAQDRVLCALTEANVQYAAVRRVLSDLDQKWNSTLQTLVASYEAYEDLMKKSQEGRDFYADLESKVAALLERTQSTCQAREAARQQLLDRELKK
Method: HD-PTPBro1-CC, HD-PTPBro1-CC F678D, and AlixBro1-V cloned into pGBKT7 were used as described previously ([Stefani et al., 2011]). UBAP1 (122–308) was cloned into pGADT7. Further deletion and missense mutations in UBAP1 as indicated were generated by standard PCR-based mutagenesis. Interactions were tested using the Matchmaker Gold system (Clontech) as described previously ([Stefani et al., 2011]) Each triplicate experiment was repeated at least three times.

Molecule	Y2H binding to HD-PTP (HD-PTPBro1-CC)	also measured
CO[C@H]1C[C@@H]2CC[C@@H](C)[C@@](O)(O2)C(=O)C(=O)N2CCCC[C@H]2C(=O)O[C@H]([C@H](C)C[C@@H]2CC[C@@H](O)[C@H](OC)C2)CC(=O)[C@H](C)/C=C(\C)[C@@H](O)[C@@H](OC)C(=O)[C@H](C)C[C@H](C)/C=C/C=C/C=C/1C [rapamycin, reference compound]	–	relocalization of HD-PTPBro1-CC to mitochondria ([1]; FKBP-HD-PTPBro1-CC with mito-FRB): efficient relocalization
residues 260–269: minimal region of UBAP1 for effective binding to HD-PTP (VSNIKSLSFP; UniProt Q9NZ09 260-269, looked up, fragment)	minimal region for effective binding	–
B1	–	relocation to mitochondria with HD-PTPBro1-CC [1]: relocated to mitochondria; also recorded: translocates to mitochondria
B2	no obvious effect on binding; also recorded: weaker phenotype	–
B3	–	relocation to mitochondria with HD-PTPBro1-CC [1]: not
B4	abolished binding	–
B5	no obvious effect on binding; also recorded: weaker phenotype	–
